According to patent publication US20190323037, “REPLICATIVE TRANSPOSON SYSTEM” (HORIZON DISCOVERY LIMITED, published 2019):

T1: Helraiser transposase (RepHel, Helitron) (Myotis lucifugus)
T1 chain: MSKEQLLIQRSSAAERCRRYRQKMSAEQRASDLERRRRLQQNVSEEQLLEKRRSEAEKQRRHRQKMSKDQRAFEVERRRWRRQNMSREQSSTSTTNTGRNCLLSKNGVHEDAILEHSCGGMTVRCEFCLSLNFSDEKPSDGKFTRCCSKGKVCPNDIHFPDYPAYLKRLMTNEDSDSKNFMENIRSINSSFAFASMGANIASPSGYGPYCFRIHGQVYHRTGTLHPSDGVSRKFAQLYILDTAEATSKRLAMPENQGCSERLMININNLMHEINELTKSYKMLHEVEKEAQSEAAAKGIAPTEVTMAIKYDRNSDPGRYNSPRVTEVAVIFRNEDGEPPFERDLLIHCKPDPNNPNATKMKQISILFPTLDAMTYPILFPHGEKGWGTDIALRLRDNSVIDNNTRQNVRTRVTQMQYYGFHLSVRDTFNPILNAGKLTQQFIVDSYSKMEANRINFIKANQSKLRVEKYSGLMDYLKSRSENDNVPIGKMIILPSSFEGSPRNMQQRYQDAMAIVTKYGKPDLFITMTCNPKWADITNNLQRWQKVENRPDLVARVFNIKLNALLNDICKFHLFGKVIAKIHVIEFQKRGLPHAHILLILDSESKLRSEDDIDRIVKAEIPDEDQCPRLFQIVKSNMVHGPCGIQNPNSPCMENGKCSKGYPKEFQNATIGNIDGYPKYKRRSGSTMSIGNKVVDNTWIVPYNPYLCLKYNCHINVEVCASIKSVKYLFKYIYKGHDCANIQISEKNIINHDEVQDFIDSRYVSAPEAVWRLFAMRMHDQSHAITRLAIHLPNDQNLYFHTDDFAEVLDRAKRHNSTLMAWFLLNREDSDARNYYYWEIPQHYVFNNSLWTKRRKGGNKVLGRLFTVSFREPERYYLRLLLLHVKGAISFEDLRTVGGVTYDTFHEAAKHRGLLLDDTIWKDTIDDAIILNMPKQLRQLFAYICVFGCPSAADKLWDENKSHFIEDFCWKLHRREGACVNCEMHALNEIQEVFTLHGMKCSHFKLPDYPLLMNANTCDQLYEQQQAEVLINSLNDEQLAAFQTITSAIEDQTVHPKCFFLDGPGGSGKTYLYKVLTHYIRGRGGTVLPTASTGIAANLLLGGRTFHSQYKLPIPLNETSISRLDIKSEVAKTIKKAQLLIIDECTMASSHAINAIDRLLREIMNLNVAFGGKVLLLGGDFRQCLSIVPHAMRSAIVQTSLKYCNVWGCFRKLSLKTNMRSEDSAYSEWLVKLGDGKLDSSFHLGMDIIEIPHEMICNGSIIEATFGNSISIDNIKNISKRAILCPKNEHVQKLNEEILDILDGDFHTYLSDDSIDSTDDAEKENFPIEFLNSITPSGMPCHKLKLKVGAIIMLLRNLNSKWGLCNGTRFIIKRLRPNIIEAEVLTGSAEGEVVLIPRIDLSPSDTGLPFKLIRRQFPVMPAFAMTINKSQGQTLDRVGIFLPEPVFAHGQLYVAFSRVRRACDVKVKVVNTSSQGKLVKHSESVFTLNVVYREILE


Experiments:
[1] = biological target: T1, Helraiser transposase (RepHel, Helitron); assay: EMSA; text says cleavage-assay oligonucleotides bound; details: tags: His tag (pFastBac HT-A), TEV-cleaved, insect cells, label: 6-FAM
Experimental: (§1) Binding of the Helraiser transposase to various DNA oligonucleotides was measured by EMSA using 6% TBE gels (Invitrogen). Purified protein at 15 nM-150 nM was incubated for 30 min at room temperature in binding buffer (50 mM Tris pH 7.5, 100 mM NaCl, 10 mM MgCl₂, 0.5 mM ETDA, 1 mM TCEP) with 50 nM 6-FAM labeled oligonucleotides. After addition of DNA gel loading solution (Quality Biological, INC), samples were run on 6% TBE gels and visualized.

[2] = biological target: T1, Helraiser transposase (RepHel, Helitron); assay: EMSA; 10 mM MgCl2, 100 mM NaCl, pH 7.5, RT; 50 nM oligo; text says cleavage-assay oligonucleotides; details: tags: His tag (pFastBac HT-A), TEV-cleaved; insect cells; label: 6-FAM
Experimental: as §1

Row | Binder | binding result [1] | other results
1 | GGGATGGTCAATTTGCATGTTTCTCTTTTATTATATAGGATCATATGGTG (ssDNA, [NONE]) [Helraiser LTS substrate (-), bottom strand] | binds | 
2 | CCCTTTCAATGTGCACGAATTTCGTGCACCGGGCCACTAGTATATATATA (ssDNA) [Helraiser RTS substrate (+), top strand] |  | binding result ([1]; potential hairpin (19-nt palindrome)): binds
3 | TATATATATACTAGTGGCCCGGTGCACGAAATTCGTGCACATTGAAAGGG (ssDNA, [NONE]) [Helraiser RTS substrate (-), bottom strand] | binds | 
4 | CACCATATGATCCTATATAATAAAAGAGAAACATGCAAATTGACCATCCC (ssDNA) [Helraiser LTS substrate (+), top strand] |  | binding result [2]: binds
